Data: IntAct's records for PubMed 14978263

Target: csk21_arath CKA1 (UniProt Q08467)
Sequence (Q08467 whole entry): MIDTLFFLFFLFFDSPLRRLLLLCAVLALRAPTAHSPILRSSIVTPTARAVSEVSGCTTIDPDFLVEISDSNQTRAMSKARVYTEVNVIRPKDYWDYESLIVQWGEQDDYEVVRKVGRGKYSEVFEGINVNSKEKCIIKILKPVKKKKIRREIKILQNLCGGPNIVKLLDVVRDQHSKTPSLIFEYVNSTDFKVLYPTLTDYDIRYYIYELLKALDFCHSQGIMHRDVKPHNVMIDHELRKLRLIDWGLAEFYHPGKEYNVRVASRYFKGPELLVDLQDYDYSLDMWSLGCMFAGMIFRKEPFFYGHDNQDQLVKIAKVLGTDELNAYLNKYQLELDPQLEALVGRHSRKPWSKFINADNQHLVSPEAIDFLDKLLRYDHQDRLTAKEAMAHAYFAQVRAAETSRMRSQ

Sequence of Protein CCA1 (Arabidopsis thaliana (Mouse-ear cress)), P92973 S6A (P92973 whole entry S6A): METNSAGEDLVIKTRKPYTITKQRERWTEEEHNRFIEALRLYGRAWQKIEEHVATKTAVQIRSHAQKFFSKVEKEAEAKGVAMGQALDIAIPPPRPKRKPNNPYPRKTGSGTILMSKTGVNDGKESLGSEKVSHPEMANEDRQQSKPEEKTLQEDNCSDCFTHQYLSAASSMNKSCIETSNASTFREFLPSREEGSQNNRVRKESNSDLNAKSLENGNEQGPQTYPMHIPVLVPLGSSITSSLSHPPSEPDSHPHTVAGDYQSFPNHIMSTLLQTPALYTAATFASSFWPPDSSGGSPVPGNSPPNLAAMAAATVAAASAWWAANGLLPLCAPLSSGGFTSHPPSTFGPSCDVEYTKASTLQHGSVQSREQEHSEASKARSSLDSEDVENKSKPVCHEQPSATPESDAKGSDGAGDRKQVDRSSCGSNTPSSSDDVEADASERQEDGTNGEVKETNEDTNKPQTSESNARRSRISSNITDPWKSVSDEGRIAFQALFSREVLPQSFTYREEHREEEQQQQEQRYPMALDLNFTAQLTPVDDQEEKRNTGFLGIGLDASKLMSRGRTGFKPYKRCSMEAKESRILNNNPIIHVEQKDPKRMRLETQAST
Sequence of Protein CCA1 (Arabidopsis thaliana (Mouse-ear cress)), P92973 S5A (P92973 whole entry S5A): as the sequence (P92973 whole entry S6A) above, with S5A, A6S counted along it

| effect of a mutation on the interaction | Substance |
| --- | --- |
| decreasing interaction | Protein CCA1 (Arabidopsis thaliana (Mouse-ear cress)), P92973 S484A |
| decreasing interaction | Protein CCA1 (Arabidopsis thaliana (Mouse-ear cress)), P92973 S431A |
| decreasing interaction | Protein CCA1 (Arabidopsis thaliana (Mouse-ear cress)), P92973 S433A |
| decreasing interaction | Protein CCA1 (Arabidopsis thaliana (Mouse-ear cress)), P92973 S432A |
| decreasing interaction | Protein CCA1 (Arabidopsis thaliana (Mouse-ear cress)), P92973 S6A |
| decreasing interaction | Protein CCA1 (Arabidopsis thaliana (Mouse-ear cress)), P92973 S5A |
